{"source": "patent US20160058829A1", "about": "“ANTI-FIBROTIC PEPTIDES AND THEIR USE IN METHODS FOR TREATING DISEASES AND DISORDERS CHARACTERIZED BY FIBROSIS” (Thrasos Innovation, Inc., priority 2011, published 2016)", "molecules": {"B1": {"name": "BMP-7: bone morphogenetic protein-7; recombinant human BMP7, positive control (protein)", "chain": "STGSKQRSQNRSKTPKNQEALRMANVAENSSSDQRQACKKHELYVSFRDLGWQDWIIAPEGYAAYYCEGECAFPLNSYMNATNHAIVQTLVHFINPETVPKPCCAPTQLNAISVLYFDDSSNVILKKYRNMVVRACGCH"}}, "key": {"Alk-3": {"molecular_target": "T1, Alk-3 (Homo sapiens, UniProt P36894)", "T1 construct": "Highly purified extra-cellular domain (ECD) of Alk-3 or Alk-6 (expressed as a fusion protein with Fc domain) served as a receptor", "T1 sequence (P36894 24-152 limits assumed, species assumed)": "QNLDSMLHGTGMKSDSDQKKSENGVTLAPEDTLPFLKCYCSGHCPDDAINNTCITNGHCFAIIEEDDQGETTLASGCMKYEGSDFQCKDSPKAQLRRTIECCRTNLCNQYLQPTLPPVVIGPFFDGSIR", "assay": "Radio-ligand (125I-BMP7) receptor binding assay, Alk-3 ECD", "text": "FIG. 45A-FIG. 45G Pharmacokinetics of THR-123. FIG. 45A. BMP7 structure figure with the residue weights resulting from the analysis mapped on to it. FIG. 45B, FIG. 45C. Radio-ligand receptor binding assays specific for individual type I receptors, Alk-3 (FIG. 45B) and Alk-6 (FIG. 45C). Highly purified extra-cellular domain (ECD) of Alk-3 or Alk-6 (expressed as a fusion protein with Fc domain) served as a receptor. In each assay purified receptor was immobilized on each well and peptide analog or unlabeled BMP7 was added, followed by ^125I-labeled BMP7. Radiolabeled BMP7 complex was counted in an auto-gamma counter. Results were expressed as the mean±s.e.m. […] Concentration of THR-123 in systemic circulation of Wistar rats following iv injection of THR-123 (^125I-Tyr) via the tail vein determined by total radioactivity measurement. […] Six hours after intravenous administration of ^125I labeled-THR-123 in rats at a dose of 6.25 mg/kg-body weight, tissues were harvested and analyzed by automatic gamma well counter. […] Radioactivity of orally administrated ^125I labeled-THR-123 at a dose of 5 mg/kg body weight was localized in the kidney between 1 and 6 hours after administration and peaked at around 3 hours.\nFirst, specific affinity of the extra cellular domains (ECD) of the several type I receptors of BMPs to THR-123 was analyzed. […]"}, "[1]": {"system": "mice with unilateral ureteral obstruction (UUO)", "assay": "Unilateral ureteral obstruction (UUO) in mice", "type": "in vivo", "conditions": "for kidney histology (H&E), day 7 UUO: BMP7 i.p., THR-123 i.p. or orally; for interstitial volume / fibrosis, day 7 UUO: BMP-7 300 μg/Kg every other day i.p., THR-123 5 mg/Kg/day i.p. or oral", "procedure": "FIG. 56A-FIG. 56J The effect of THR-123 on mice with unilateral ureteral obstruction (UUO) mice. At the day of UUO, BMP-7 (300 μg/Kg/every other day, intraperitoneal administration) or THR-123 (5 mg/Kg/day, oral or intraperitoneal administration) are initiated. FIG. 56A-FIG. 56D: Masson's trichrome staining of normal kidney, day 5 UUO kidney. FIG. 56A. normal kidney section. […] FIG. 56C, FIG. 56D. […] FIG. 56E. Morphometric analysis for relative interstitial volume. Interstitial volume was calculated by the point counting method. FIG. 56F-FIG. 56I. Masson's trichrome staining of normal kidney, day 7 UUO kidney. […] FIG. 56I. Morphometric analysis for relative interstitial volume. Interstitial volume was calculated by the point counting method. […] Normal mice (n=4), day 5 UUO without treatment (n=4), day 5 UUO-treated with 5 mg/kg THR-123 (n=4), day 5 UUO-treated with 15 mg/kg THR-123 (n=4), day 7 UUO-treated with PBS (n=8), -treated with BMP (n=8) and -treated with THR-123 (n=7 in both i.p. and oral). Data are shown as mean±s.e.m. in the graph (FIG. 56J).\nFIG. 57A-FIG. 57H The effect of THR-123 on mice with unilateral ureteral obstruction (UUO) mice (H&E staining). On the day UUO was performed, treatments of BMP7 (300 μg/Kg/every other day, intraperitoneal administration) or THR-123 (5 mg/Kg/day, oral or intraperitoneal administration) are initiated. FIG. 57A. Normal kidney section. FIG. 57B. Day 5 UUO mice FIG. 57C, FIG. 57D. Kidney of UUO mice treated with THR-123 orally at 5 mg/kg (FIG. 57C) or 15 mg/kg (FIG. 57D) E-H. Day 7 UUO kidney histology. […] Normal mice (n=4), day 5 UUO without treatment (n=4), day 5 UUO-treated with 5 mg/kg THR-123 (n=4), day 5 UUO-treated with 15 mg/kg THR-123 (n=4), day 7 UUO-treated with PBS (n=8), -treated with BMP (n=8) and -treated with THR-123 (n=7 in both i.p. and oral).\nFIG. 58 Gene expression analysis for the fibrosis markers in mice with UUO. Quantitative RT-PCR analysis for fibronectin-EIII and collagen type-I in normal kidney and day 7 UUO kidney with or without indicated treatment.\nMice are anesthetized with the mixture of ketamine and xylazine. Prepare the ureter from the surrounding tissues and place two ligatures about 5 mm apart in upper two-thirds of the ureter of the left kidney to obtain reliable obstruction. At same day after surgery, mice were initiated treatment with BMP7 (300 μg i.p./Kg/every other day), THR-123 (p.o. 5 mg or 15 mg/Kg/day, i.p. 5 mg/Kg/day) or PBS (i.p.) as control. Mice are sacrificed at day 5 or 7 after operation."}, "[2]": {"system": "pluripotent mesenchymal stem cells (C3H10T1/2)", "assay": "Osteoblastic differentiation of pluripotent stem cells (alkaline phosphatase staining)", "type": "cell-based, Murine", "conditions": "BMP-7 2 ug/mL", "text": "Murine pluripotent mesenchymal stem cells (C3H10T1/2) treated with medium alone, BMP-7 or THR-123 were stained for alkaline phosphatase activity, an osteogenic marker. No staining of cells was observed when treated with medium alone (control, panel FIG. 41A) or with THR-123 (panel FIG. 41B). […] Cells were counterstained with hematoxylin."}, "UUO animals": {"system": "UUO animals", "assay": "Unilateral ureteral obstruction (UUO), FIG. 33-34", "type": "in vivo", "conditions": "for hydroxyproline content (total collagen) of UUO kidneys: 3-fold increase in vehicle-treated UUO kidneys; for expansion of the interstitial space: UUO animals showed 3 fold expansion", "text": "In the animals given BMP-7 or […] Hydroxyproline content, a measure of total collagen, increased 3-fold in the vehicle-treated UUO kidneys compared with sham-operated kidneys. […]"}}, "note": "“Also recorded” adds a separate entry of the source. Where two headings read alike, the source gives them in different places. Positions of bridges follow the written chain, without caps; N, C: chain ends."}
{"molecule": "(H)-CYFDDSSNVLCKKYRS-(OH) (H-CYFDDSSNVLCKKYRS-OH; disulfide 1-11; SMILES CC(C)C[C@@H]1NC(=O)[C@H](C(C)C)NC(=O)[C@H](CC(N)=O)NC(=O)[C@H](CO)NC(=O)[C@H](CO)NC(=O)[C@H](CC(=O)O)NC(=O)[C@H](CC(=O)O)NC(=O)[C@H](Cc2ccccc2)NC(=O)[C@H](Cc2ccc(O)cc2)NC(=O)[C@@H](N)CSSC[C@@H](C(=O)N[C@@H](CCCCN)C(=O)N[C@@H](CCCCN)C(=O)N[C@@H](Cc2ccc(O)cc2)C(=O)N[C@@H](CCCNC(=N)N)C(=O)N[C@@H](CO)C(=O)O)NC1=O) [SEQ ID NO: 1]", "values": [{"measurement": "binding to ALK3 (competition with 125I-BMP7)", "setting": "Alk-3; listed as THR-123", "result": "competes with BMP7; also recorded: binds"}, {"measurement": "kidney histology (H&E), day 7 UUO", "setting": "[1]", "result": "preserved tubules"}, {"measurement": "interstitial volume / fibrosis, day 7 UUO", "setting": "[1]; 5 mg/kg/day", "result": "inhibited fibrosis; also recorded: less kidney interstitial volume"}, {"measurement": "interstitial volume expansion, day 5 UUO", "setting": "[1]; THR-123 oral 5 mg/Kg or 15 mg/Kg", "result": "inhibited interstitial volume expansion"}, {"measurement": "kidney histology, day 5 UUO", "setting": "[1]; THR-123 orally 5 mg/kg or 15 mg/kg", "result": "less tubular atrophy, tubular dilatation and interstitial inflammation"}, {"measurement": "expression of fibronectin and type I collagen, day 7 UUO", "setting": "[1]; quantitative RT-PCR", "result": "decreased expression of matrix components such as fibronectin and type I collagen"}, {"measurement": "osteoblastic differentiation (alkaline phosphatase staining)", "setting": "[2]", "result": "failed to induce osteoblastic differentiation"}, {"measurement": "hydroxyproline content (total collagen) of UUO kidneys", "setting": "UUO animals", "result": "effectively decreased"}, {"measurement": "expansion of the interstitial space", "setting": "UUO animals", "result": "significantly reduced"}]}
{"molecule": "B1", "values": [{"measurement": "binding to ALK3 (competition with 125I-BMP7)", "setting": "Alk-3", "result": "binds"}, {"measurement": "kidney histology (H&E), day 7 UUO", "setting": "[1]", "result": "preserved tubules"}, {"measurement": "interstitial volume / fibrosis, day 7 UUO", "setting": "[1]", "result": "ameliorated interstitial volume expansion"}, {"measurement": "interstitial volume / fibrosis, day 7 UUO", "setting": "[1]; listed as BMP7", "result": "less kidney interstitial volume"}, {"measurement": "osteoblastic differentiation (alkaline phosphatase staining)", "setting": "[2]", "result": "induced osteoblastic differentiation"}, {"measurement": "hydroxyproline content (total collagen) of UUO kidneys", "setting": "UUO animals", "result": "effectively decreased"}, {"measurement": "expansion of the interstitial space", "setting": "UUO animals", "result": "significantly reduced"}]}
